US20240209096A1 (INVETX, published 2024)
Substitutions are numbered along the chain they refer to. Names and notes keep the numbering of the source.

B1: IgG with canine IgGB Fc variant N434H (antibody)
heavy: EVQLVESGGDLVAPSQSLSITCTVSGMSLTSNSISWVRQPPGRGLEWLGTIWSNGGTDYTDAVKGRFTISRDNAKNTVYLQMNSLRAEDTAMYYCAQIYYYDADYLHWYFDFWGQGTLVTVSSASTTAPSVFPLAPSCGSTSGSTVALACLVSGYFPEPVTVSWNSGSLTSGVHTFPSVLQSSGLYSLSSMVTVPSSRWPSETFTCNVAHPASKTKVDKPVPKRENGRVPRPPDCPKCPAPEAAGGPSVFIFPPKPKDTLLIARTPEVTCVVVDLDPEDPEVQISWFVDGKQMQTAKTQPREEQFNGTYRVVSVLPIGHQDWLKGKQFTCKVNNKALPSPIERTISKARGQAHQPSVYVLPPSREELSKNTVSLTCLIKDFFPPDIDVEWQSNGQQEPESKYRTTPPQLDEDGSYFLYSKLSVDKSRWQRGDTFICAVMHEALHHHYTQESLSHSPG
light: EIVMTQSPASLSASQEEKVTITCRASEGISNNLAWYQQKPGQAPKLLIHATSSLQTGVPSRFSGSGSGTDFTLTISSLQPEDFATYYCQQGYQFPLTFGQGTKVEIKRNDAQPAVYLFQPSPDQLHTGSASVVCLLNSFYPKDINVKWKVDGVIQDTGIQESVTEQDKDSTYSLSSTLTMSSTEYLSHELYSCEITHKSLPSTLIKSFQRSECQRVD
notes: Full chains; canine IgGB constant domain with MALA mutations; variable domains of WO 2023/97275
B2: IgG with canine IgGB Fc variant L252Y, A426H (antibody)
heavy: B1 heavy with L261Y, A437H, H445N
light: B1 light
notes: as for B1
B3: IgG with canine IgGB Fc variant L252Y, T286L (antibody)
heavy: B1 heavy with L261Y, T295L, H445N
light: B1 light
notes: as for B1
B4: IgG with canine IgGB Fc variant L252Y (antibody)
heavy: B1 heavy with L261Y, H445N
light: B1 light
notes: as for B1
B5: IgG with canine IgGB Fc variant N434H, A426Y (antibody)
heavy: B1 heavy with A437Y
light: B1 light
notes: as for B1
B6: IgG with canine IgGB Fc variant L252Y, A426L (antibody)
heavy: B1 heavy with L261Y, A437L, H445N
light: B1 light
notes: as for B1
B7: IgG with canine IgGB Fc variant N434H, A426W (antibody)
heavy: B1 heavy with A437W
light: B1 light
notes: as for B1
B8: IgG with canine IgGB Fc variant N434H, T286F (antibody)
heavy: B1 heavy with T295F
light: B1 light
notes: as for B1
B9: IgG with canine IgGB Fc variant N434H, T286L (antibody)
heavy: B1 heavy with T295L
light: B1 light
notes: as for B1
B10: IgG with canine IgGB Fc variant N434H, A426F (antibody)
heavy: B1 heavy with A437F
light: B1 light
notes: as for B1
B11: IgG with canine IgGB Fc variant N434H, T286W (antibody)
heavy: B1 heavy with T295W
light: B1 light
notes: as for B1
B12: IgG with canine IgGB Fc variant N434H, A426L (antibody)
heavy: B1 heavy with A437L
light: B1 light
notes: as for B1
B13: IgG with canine IgGB Fc variant L252M (antibody)
heavy: B1 heavy with L261M, H445N
light: B1 light
notes: as for B1
B14: IgG with canine IgGB Fc variant L252Y, T286W (antibody)
heavy: B1 heavy with L261Y, T295W, H445N
light: B1 light
notes: as for B1
B15: IgG with canine IgGB Fc variant L252M, A426L (antibody)
heavy: B1 heavy with L261M, A437L, H445N
light: B1 light
notes: as for B1
B16: IgG with canine IgGB Fc variant L252M, T286Y (antibody)
heavy: B1 heavy with L261M, T295Y, H445N
light: B1 light
notes: as for B1
B17: IgG with canine IgGB Fc variant L252Y, T286Y (antibody)
heavy: B1 heavy with L261Y, T295Y, H445N
light: B1 light
notes: as for B1
B18: IgG with canine IgGB Fc variant L252M, T286F (antibody)
heavy: B1 heavy with L261M, T295F, H445N
light: B1 light
notes: as for B1
B19: IgG with canine IgGB Fc variant L252M, T286L (antibody)
heavy: B1 heavy with L261M, T295L, H445N
light: B1 light
notes: as for B1
B20: IgG with canine IgGB Fc variant L252M, T286W (antibody)
heavy: B1 heavy with L261M, T295W, H445N
light: B1 light
notes: as for B1
B21: IgG with canine IgGB Fc variant L252M, A426H (antibody)
heavy: B1 heavy with L261M, A437H, H445N
light: B1 light
notes: as for B1
B22: IgG with canine IgGB Fc variant L252M, A426Y (antibody)
heavy: B1 heavy with L261M, A437Y, H445N
light: B1 light
notes: as for B1
B23: IgG with canine IgGB Fc variant L252Y, T286F (antibody)
heavy: B1 heavy with L261Y, T295F, H445N
light: B1 light
notes: as for B1

Biological target: T1, canine FcRn (soluble large subunit p51 isoform X2 with 6xHis-tag, co-expressed with canine … (canine))
T1 construct: Heterodimer made by co-expression in CHO cells, purified on HISTRAP FF, >95% pure by SEC; Both entries hold a 19-residue signal peptide at the N-terminus that should be removed (residues 1-19); also called FcRn complex
T1 chain: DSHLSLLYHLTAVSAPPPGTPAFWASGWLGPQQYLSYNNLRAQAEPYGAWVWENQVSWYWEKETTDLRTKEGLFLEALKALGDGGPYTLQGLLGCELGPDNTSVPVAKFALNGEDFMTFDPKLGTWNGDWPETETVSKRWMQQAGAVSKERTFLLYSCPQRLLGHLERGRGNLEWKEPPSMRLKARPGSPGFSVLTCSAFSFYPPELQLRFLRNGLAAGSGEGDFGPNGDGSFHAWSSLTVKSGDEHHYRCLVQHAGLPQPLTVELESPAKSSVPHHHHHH
T1 b2m: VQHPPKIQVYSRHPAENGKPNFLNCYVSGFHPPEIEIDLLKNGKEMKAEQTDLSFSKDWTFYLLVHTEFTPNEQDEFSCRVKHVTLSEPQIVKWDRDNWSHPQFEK
Assay: SPR, IgG on protein L chip, FcRn in flow, pH 5.9, kinetic data
Protocol: (§1) The canine FcRn binding experiments at pH 5.9 and pH 7.4 were completed on a BIACORE™ T200 instrument. A Series S Protein L Sensor chip (Cytiva, Cat. No. BR29205137) was used to capture the antibody variants via the kappa (κ) light chain. The canine variants were captured onto the protein L chip at a flow rate of 10 μL/min for 60 seconds. Approximately 250 RUs of the variants were captured. For the low pH binding condition, 1×PBX-P+ (Cytiva, Cat. No. 28995084) was adjusted to pH 5.9. The canine FcRn was flowed over the sensor chip at 30 μL/min for 120 seconds contact time and 600 seconds dissociation time. Regeneration of the flow cells was completed by flowing over 10 mM glycine, pH 1.7 at 30 μL/min for 30 seconds. The data were evaluated by the BIACORE™ T200 Evaluation software (version 3.2.1) by fitting to a 1:1 kinetic interaction model.

Row | Binder | Kd [nM] | koff [s⁻¹] | kon [M⁻¹ s⁻¹]
1 | B1 | 55.3 | 0.097 | 1.75e+06
2 | B2 | 3.76 | 0.00598 | 1.59e+06
3 | B3 | 18.2 | 0.0237 | 1.31e+06
4 | B4 | 43.5 | 0.0491 | 1.13e+06
5 | B5 | 10.9 | 0.0252 | 2.31e+06
6 | B6 | 6.41 | 0.012 | 1.87e+06
7 | B7 | 14.5 | 0.0406 | 2.79e+06
8 | B8 | 14.4 | 0.0361 | 2.52e+06
9 | B9 | 21.3 | 0.0518 | 2.44e+06
10 | B10 | 11.8 | 0.0296 | 2.5e+06
11 | B11 | 11.5 | 0.0321 | 2.78e+06
12 | B12 | 18.9 | 0.0492 | 2.61e+06

Biological target: T1, canine FcRn (soluble large subunit p51 …)
Assay: SPR, IgG on protein L chip, FcRn in flow, pH 7.4, steady state fit
Protocol: as §1
A subset of the Fc variants was tested for binding to canine FcRn at pH 7.4. For these experiments, 1×PBX-P+ (Cytiva, Cat. No. 28995084) was adjusted to pH 7.4. […] In addition, the pH 7.4 data were evaluated by the BIACORE™ T200 Evaluation software (version 3.2.1) by fitting to steady state affinity model. The kinetic binding data for the variants at pH 7.4 along with the binding data at pH 5.9 for these variants are shown in Table 7 below.

Row | Binder | Kd [nM]
13 | B1 | 5400
14 | B2 | 388
15 | B3 | 2620
16 | B4 | 4440
17 | B5 | 1050
18 | B6 | 713
19 | B7 | 1790
20 | B8 | 2370
21 | B9 | 3450
22 | B10 | 1380
23 | B11 | 2070
24 | B12 | 2030

Biological target: T1, canine FcRn (soluble large subunit p51 …)
Assay: SPR, IgG on protein L chip, FcRn in flow, pH 5.9, 1:1 fit
Protocol: as §1

Row | Binder | Kd [nM] | koff [s⁻¹] | kon [M⁻¹ s⁻¹]
25 | B13 | 40.7 | 0.00335 | 82400
26 | B14 | 9.82 | 0.0203 | 2.07e+06
27 | B1 | 55.3 | 0.097 | 1.75e+06
28 | B2 | 3.76 | 0.00598 | 1.59e+06
29 | B3 | 18.2 | 0.0237 | 1.31e+06
30 | B15 | 102 | 0.111 | 1.09e+06
31 | B4 | 43.5 | 0.0491 | 1.13e+06
32 | B16 | 66.6 | 0.0822 | 1.24e+06
33 | B5 | 10.9 | 0.0252 | 2.31e+06
34 | B6 | 6.41 | 0.012 | 1.87e+06
35 | B7 | 14.5 | 0.0406 | 2.79e+06
36 | B17 | 10.2 | 0.018 | 1.76e+06
37 | B18 | 71.8 | 0.0937 | 1.31e+06
38 | B8 | 14.4 | 0.0361 | 2.52e+06
39 | B19 | 90 | 0.111 | 1.23e+06
40 | B9 | 21.3 | 0.0518 | 2.44e+06
41 | B20 | 64.5 | 0.0912 | 1.42e+06
42 | B10 | 11.8 | 0.0296 | 2.5e+06
43 | B21 | 37 | 0.065 | 1.76e+06
44 | B22 | 57.4 | 0.0581 | 1.01e+06
45 | B11 | 11.5 | 0.0321 | 2.78e+06
46 | B12 | 18.9 | 0.0492 | 2.61e+06
47 | B23 | 10.8 | 0.0193 | 1.79e+06
